# B1: Neuroligin-1 (Rattus norvegicus (Rat)), Q62765-2 (parent)
# chain: MALPRCMWPNYVWRAMMACVVHRGSGAPLTLCLLGCLLQTFHVLSQKLDDVDPLVTTNFGKIRGIKKELNNEILGPVIQFLGVPYAAPPTGEHRFQPPEPPSPWSDIRNATQFAPVCPQNIIDGRLPEVMLPVWFTNNLDVVSSYVQDQSEDCLYLNIYVPTEDDIRDSGGPKPVMVYIHGGSYMEGTGNLYDGSVLASYGNVIVITVNYRLGVLGFLSTGDQAAKGNYGLLDLIQALRWTSENIGFFGGDPLRITVFGSGAGGSCVNLLTLSHYSEGLFQRAIAQSGTALSSWAVSFQPAKYARILATKVGCNVSDTVELVECLQKKPYKELVDQDVQPARYHIAFGPVIDGDVIPDDPQILMEQGEFLNYDIMLGVNQGEGLKFVENIVDSDDGVSASDFDFAVSNFVDNLYGYPEGKDVLRETIKFMYTDWADRHNPETRRKTLLALFTDHQWVAPAVATADLHSNFGSPTYFYAFYHHCQTDQVPAWADAAHGDEVPYVLGIPMIGPTELFPCNFSKNDVMLSAVVMTYWTNFAKTGDPNQPVPQDTKFIHTKPNRFEEVAWTRYSQKDQLYLHIGLKPRVKEHYRANKVNLWLELVPHLHNLNDISQYTSTTTKVPSTDITLRPTRKNSTPVTSAFPTAKQDDPKQQPSPFSVDQRDYSTELSVTIAVGASLLFLNILAFAALYYKKDKRRHDVHRRCSPQRTTTNDLTHAPEEEIMSLQMKHTDLDHECESIHPHEVVLRTACPPDYTLAMRRSPDDVPLMTPNTITMIPNTIPGIQPLHTFNTFTGGQNNTLPHPHPHPHSHSTTRV
# B2: Neuroligin-2 (Rattus norvegicus (Rat)), Q62888-2 (parent)
# chain: MWLLALCLVGLAGAQRGGGGPGGGAPGGPGLGLGSLGEERFPVVNTAYGRVRGVRRELNNEILGPVVQFLGVPYATPPLGARRFQPPEAPASWPGVRNATTLPPACPQNLHGALPAIMLPVWFTDNLEAAATYVQNQSEDCLYLNLYVPTEDDIRDSGKKPVMLFLHGGSYMEGTGNMFDGSVLAAYGNVIVATLNYRLGVLGFLSTGDQAAKGNYGLLDQIQALRWLSENIAHFGGDPERITIFGSGAGASCVNLLILSHHSEGLFQKAIAQSGTAISSWSVNYQPLKYTRLLAAKVGCDREDSTEAVECLRRKSSRELVDQDVQPARYHIAFGPVVDGDVVPDDPEILMQQGEFLNYDMLIGVNQGEGLKFVEDSAESEDGVSASAFDFTVSNFVDNLYGYPEGKDVLRETIKFMYTDWADRDNGEMRRKTLLALFTDHQWVAPAVATAKLHADYQSPVYFYTFYHHCQAEGRPEWADAAHGDELPYVFGVPMVGATDLFPCNFSKNDVMLSAVVMTYWTNFAKTGDPNQPVPQDTKFIHTKPNRFEEVVWSKFNSKEKQYLHIGLKPRVRDNYRANKVAFWLELVPHLHNLHTELFTTTTRLPPYATRWPPRTPGPGTSGTRRPPPPATLPPESDIDLGPRAYDRFPGDSRDYSTELSVTVAVGASLLFLNILAFAALYYKRDRRQELRCRRLSPPGGSGSGVPGGGPLLPTAGRELPPEEELVSLQLKRGGGVGADPAEALRPACPPDYTLALRRAPDDVPLLAPGALTLLPSGLGPPPPPPPPSLHPFGPFPPPPPTATSHNNTLPHPHSTTRV
# Variants of: B1
# Conditions: with Nrxn1, Q63373-3
row,effect of a mutation on the interaction,Variant
1,disrupting interaction,G471A

# Variants of: B2
# Conditions: with Nrxn1, Q63373-3
# Target sequence in this assay (Q63373 other isoform, or with tags, fused parts or gaps): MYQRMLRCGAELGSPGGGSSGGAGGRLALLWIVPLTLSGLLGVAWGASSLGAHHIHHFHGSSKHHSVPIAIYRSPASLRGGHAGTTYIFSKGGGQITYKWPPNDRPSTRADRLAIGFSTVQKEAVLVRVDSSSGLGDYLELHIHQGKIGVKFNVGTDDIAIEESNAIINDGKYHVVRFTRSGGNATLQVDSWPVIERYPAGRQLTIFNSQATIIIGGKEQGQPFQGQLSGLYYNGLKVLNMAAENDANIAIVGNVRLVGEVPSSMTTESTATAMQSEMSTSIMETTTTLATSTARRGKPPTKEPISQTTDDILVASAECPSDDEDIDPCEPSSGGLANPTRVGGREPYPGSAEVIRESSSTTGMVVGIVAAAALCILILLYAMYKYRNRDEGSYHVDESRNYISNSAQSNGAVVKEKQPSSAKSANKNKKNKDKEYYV
row,effect of a mutation on the interaction,Variant
1,increasing interaction,Q458G

# Source: IntAct's records for PubMed 20543817
